Data: patent US20220023399A1, “BLOOD COMPONENT POTENTIATION OF LYTIC PROTEIN ANTI-BACTERIAL ACTIVITY AND METHODS AND USES THEREOF” (priority 2017, published 2022)
Values joined by “and” are separate entries in the source; they are usually repeats but may differ in a detail not shown here. Equal entries are not always repeated.

Key:
[1] = tested on: S. aureus strain MW2; assay: MIC by broth microdilution in human blood matrices and animal sera; assay type: cell-based; conditions: for PlySs2/CF-301 MIC: different lots
Experimental: FIG. 5 provides PlySs2 (CF-301) MIC distribution for S. aureus MW2 in different human blood matrices. […] Each sample is described in Supplementary Table 1. The MICs are plotted on the x axis, and the numbers of patient samples with particular MICs are plotted on the y axis.
To understand whether variation in the sources of human blood-derived matrices may impact activity, PlySs2 (CF-301) MICs were determined using an array of 62 different pooled and individual human donor samples of whole blood, serum and plasma from different commercial sources with variations in age, sex, blood type, and type of anticoagulant used. […] Histograms showing MIC frequencies for each of the different matrices indicate that activity in whole blood and serum is equivalent, while activity in plasma differs by ˜1-log 2 dilution (FIG. 5). Overall, the enhancer effect was not impacted by variations in the age, sex, and blood type of individual or pooled donors or by the use of sodium citrate or sodium heparin as anticoagulants (TABLE 3). The effect was also observed in complement-inactivate media, complement preserved media, and was equivalent in at least 3 different matched sets of human blood, serum and plasma fractions, while delipidated serum was not equivalent.
The impact of sample variation on PlySs2 (CF-301) activity in the serum of different animal species was also examined.

[2] = tested on: S. aureus (strain not given); assay: MIC assay in supplemented media (recapitulation of blood effect; delipidated serum with fatty acids); assay type: cell-based
[3] = tested on: S. aureus strain MW2; assay: Synergy time-kill assay; assay type: cell-based; conditions: human serum
[4] = tested on: S. aureus NRS 271 (MRSA, LRSA); assay: Checkerboard assay, additional MRSA strains; assay type: cell-based; conditions: paired agent not given
[5] = tested on: S. aureus NRS 100 (MRSA); assay: Checkerboard assay, additional MRSA strains; assay type: cell-based; conditions: paired agent not given
[6] = tested on: S. aureus ATCC 43300 (MRSA); assay: Checkerboard assay, additional MRSA strains; assay type: cell-based; conditions: paired agent not given
[7] = tested on: S. aureus HPV 107 (MRSA); assay: Checkerboard assay, additional MRSA strains; assay type: cell-based; conditions: paired agent not given
[8] = tested on: S. aureus JMI 227 (MRSA); assay: Checkerboard assay, additional MRSA strains; assay type: cell-based; conditions: paired agent not given
[9] = tested on: S. aureus JMI 1280 (MRSA); assay: Checkerboard assay, additional MRSA strains; assay type: cell-based; conditions: paired agent not given
[10] = tested on: S. aureus JMI 4789 (MRSA); assay: Checkerboard assay, additional MRSA strains; assay type: cell-based; conditions: paired agent not given
[11] = tested on: MRSA strain MW2; assay: Rat infective endocarditis model; assay type: in vivo, Sprague-Dawley rats
[12] = tested on: MRSA strain MW2; assay: Rabbit infective endocarditis model; assay type: in vivo, New Zealand White Rabbits; conditions: rabbit; total dose ≥0.09 mg/kg PlySs2 (CF-301) in addition to DAP below the HTD equivalent
[13] = tested on: S. aureus (strain not given); assay: MIC analysis of various lysins, chimeric lysins and antibiotics in MHB and human serum; assay type: cell-based; conditions: Table 2
[14] = tested on: S. aureus strain MW2; conditions: CAMHB (Schuch 2014); cited from earlier work
[15] = clinical grade, recombinant from E. coli; cited from earlier work
[16] = tested on: S. aureus strain MW2; assay: Lytic assay (loss of optical density) and specific activity
[17] = tested on: 171 clinical S. aureus isolates (MSSA, MRSA, vancomycin-, linezolid-, daptomycin-resistant); assay: MIC by broth microdilution in CAMHB vs human serum, 171 clinical isolates
[18] = human whole blood (n=13), serum (n=33) and plasma (n=15) samples
[19] = medium head missing (human serum)

B1: PlySs2 (CF-301): antistaphylococcal lysin from a Streptococcus suis prophage; N-terminal CHAP domain, C-terminal SH3-type binding domain; SEQ ID NO:3 (protein, listed as Streptococcus suis)
chain: MTTVNEALNNVRAQVGSGVSVGNGECYALASWYERMISPDATVGLGAGVGWVSGAIGDTISAKNIGSSYNWQANGWTVSTSGPFKAGQIVTLGATPGNPYGHVVIVEAVDGDRLTILEQNYGGKRYPVRNYYSAASYRQQVVHYITPPGTVAQSAPNLAGSRSYRETGTMTVTVDALNVRRAPNTSGEIVAVYKRGESFDYDTVIIDVNGYVWVSYIGGSGKRNYVATGATKDGKRFGNAWGTFK
MIC ([1]; AST medium): ^$$MIC AST medium: 0.5 μg/mL
PlySs2/CF-301 MIC ([1]; dog serum (undiluted)): 1 µg/mL and 0.5 µg/mL
MIC ([1]; human serum, delipidized, pooled lots): 64
MIC90 [1, 18]: 1 µg/mL
MIC Range [1, 18]: 0.5 to 2 µg/mL
PlySs2/CF-301 MIC ([1]; mouse serum (undiluted)): 32 µg/mL and 64 µg/mL
PlySs2/CF-301 MIC ([1]; rabbit serum (undiluted)): 1 µg/mL
PlySs2/CF-301 MIC ([1]; rat serum (undiluted)): 8 µg/mL
Fold decrease in MIC ([2]; 50% MHB/50% human serum (heat inactivated) + HSA, 40 mg/mL): 4
Fold decrease in MIC ([2]; 50% MHB/50% human serum (heat inactivated) + HuLYZ, 10 μg/mL): 2
Fold decrease in MIC ([2]; 50% MHB/50% human serum (heat inactivated) + HuLYZ, 10 μg/mL + HSA 40 mg/mL): 16
Fold decrease in MIC ([2]; 50% MHB/50% human serum (heat inactivated) + MouseSA, 40 mg/mL): 1
Fold decrease in MIC ([2]; 50% MHB/50% human serum (heat inactivated) + RabSA, 40 mg/mL): 4
Fold decrease in MIC ([2]; 50% MHB/50% human serum (heat inactivated) + RatSA, 40 mg/mL): 2
Fold decrease in MIC ([2]; MHB supplemented with HSA, 40 mg/mL): 8
Fold decrease in MIC ([2]; MHB supplemented with HuLYZ, 10 μg/mL): 2
Fold decrease in MIC ([2]; MHB supplemented with HuLYZ, 10 μg/mL + HSA 40 mg/mL): 16
Fold decrease in MIC ([2]; MHB supplemented with RabSA, 40 mg/mL): 8
Fold decrease in CF-301 MIC compared to media alone ([2]; delipidated human serum + Oleate (0.625 mg/mL)): 8
Fold decrease in CF-301 MIC compared to media alone ([2]; delipidated human serum + Palmitate (0.625 mg/mL)): 16
Fold decrease in CF-301 MIC compared to media alone ([2]; delipidated human serum + Palmitate + Oleate): 16
concentration of each agent in PlySs2 (CF-301) + lysostaphin combination sterilizing at 24 hours [3]: 0.005 µg/mL
minimum concentration demonstrating synergy with daptomycin [3]: 0.025 µg/mL
fold decrease in minimum sterilizing concentration vs single agent ([3]; in combination with DAP): 64 fold
ΣFICavg ([4]; CAMHB): 0.5
ΣFICmin ([4]; CAMHB): 0.38
ΣFICavg [4, 19]: 0.39
ΣFICmin [4, 19]: 0.25
ΣFICavg ([5]; CAMHB): 0.75
ΣFICmin ([5]; CAMHB): 0.5
ΣFICavg [5, 19]: 0.29
ΣFICmin [5, 19]: 0.25
ΣFICavg ([6]; CAMHB): 0.87
ΣFICmin ([6]; CAMHB): 0.5
ΣFICavg [6, 19]: 0.29
ΣFICmin [6, 19]: 0.25
ΣFICavg ([7]; CAMHB): 0.64
ΣFICmin ([7]; CAMHB): 0.5
ΣFICavg [7, 19]: 0.44
ΣFICmin [7, 19]: 0.38
ΣFICavg ([8]; CAMHB): 0.64
ΣFICmin ([8]; CAMHB): 0.5
ΣFICavg [8, 19]: 0.29
ΣFICmin [8, 19]: 0.25
ΣFICavg ([9]; CAMHB): 0.57
ΣFICmin ([9]; CAMHB): 0.5
ΣFICavg [9, 19]: 0.29
ΣFICmin [9, 19]: 0.25
ΣFICavg ([10]; CAMHB): 0.64
ΣFICmin ([10]; CAMHB): 0.5
ΣFICavg [10, 19]: 0.29
ΣFICmin [10, 19]: 0.25
fold lower doses giving comparable efficacy in the rabbit vs the rat model ([11]; S. aureus infectious endocarditis models): 111 fold
estimate AUC/MIC ratio required to achieve maximal efficacy ([11]; rat IE model, 10 mg/kg in addition to DAP, 3 log10 drop relative to DAP alone): ≥ 0.87
drop in CFU/g in heart valve vegetation ([11]; rat, total dose 10 mg/kg PlySs2 (CF-301) in addition to HTD equivalent of DAP, relative to DAP alone): ~3 log 10
fold higher AUC exposure required for similar bactericidal effect in rats compared to rabbits ([11]; rats 10 mg/kg vs rabbits 0.18 mg/kg): > 20 fold
fold higher dose required for similar bactericidal effect in rats compared to rabbits ([11]; rats 10 mg/kg vs rabbits 0.18 mg/kg, in addition to DAP): ~50 fold and > 50 fold
decrease in bacterial densities as compared to DAP treatment alone [12]: 3 log 10
Minimal inhibitory concentration, MHB ([13]; MHB): 32 µg/mL
Fold decrease in MIC ([13]; human serum vs MHB): 32
Minimal inhibitory concentration, Human serum ([13]; human serum): 1 µg/mL
minimum concentration required for synergy with daptomycin [14]: 4 µg/mL
pH range over which active [15]: 6-9.7 pH
temperature range over which active [15]: 16-55 °C
Fold increase in specific activity ([16]; supplement HuLYZ, 10 μg/mL): 9.8
Fold increase in specific activity ([16]; supplement rHSA, 4%): 17.8
Fold increase in specific activity ([16]; supplements rHSA, HuLYZ): 25
MIC Range ([17]; MRSA (N 75), CAMHB): 2-128
MIC Range ([17]; MRSA (N 75), human serum): 0.25-2
MIC Range ([17]; MSSA (N 74), CAMHB): 8-32
MIC Range ([17]; MSSA (N 74), human serum): 0.25-1
MIC Range ([17]; Other (N 22: 12 vancomycin-, 5 linezolid-, 5 daptomycin-resistant strains), CAMHB): 0.5-32^
MIC Range ([17]; Other (N 22: 12 vancomycin-, 5 linezolid-, 5 daptomycin-resistant strains), human serum): 0.25-2
